In US20230357429A1 (JANUX THERAPEUTICS, published 2023):
Where two headings read alike, the source gives them in different places. Values belong to the binder of their own block, whether it stands above or below them. Where no end group is shown, it is not given here.

Key:
TBD-1 wt = target: T1, TBD-1 wt; assay: competition ELISA, peptide vs Fab binding to captured biotin-TROP2
T1 construct: Fab; the heavy chain entry is VH-CH1; also called wild-type anti-TROP2 Fab (hRS7); TROP2 Fab

TBD-11 (HC R98A) [1] = target: T2, TBD-11 (HC R98A); assay: competition ELISA, Fab on captured TROP2
T2 construct: anti-TROP2 Fab, CDR3 HC alanine mutant

[2] = target: T3, Human TROP2 ECD (31-274 AA) (human, UniProt P09758 31-274, biotinylated); assay: ELISA; biotinylated TROP2 on neutravidin plates, PC titrated, HRP secondary
T3 construct: also called biotinylated TROP2; TROP2-biotin
T3 sequence: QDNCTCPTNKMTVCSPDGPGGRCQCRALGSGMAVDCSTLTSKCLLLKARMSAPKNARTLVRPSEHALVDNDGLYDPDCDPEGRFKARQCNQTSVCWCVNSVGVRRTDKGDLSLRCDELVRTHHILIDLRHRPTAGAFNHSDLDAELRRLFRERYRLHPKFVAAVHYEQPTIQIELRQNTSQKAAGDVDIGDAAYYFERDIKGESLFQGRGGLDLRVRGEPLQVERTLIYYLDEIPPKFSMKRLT

Cyno TROP2 Full length = target: T4, Cyno TROP2 Full length (cynomolgus monkey, UniProt P09758 31-323 (human entry)); assay: cell-based or functional assay
T4 chain: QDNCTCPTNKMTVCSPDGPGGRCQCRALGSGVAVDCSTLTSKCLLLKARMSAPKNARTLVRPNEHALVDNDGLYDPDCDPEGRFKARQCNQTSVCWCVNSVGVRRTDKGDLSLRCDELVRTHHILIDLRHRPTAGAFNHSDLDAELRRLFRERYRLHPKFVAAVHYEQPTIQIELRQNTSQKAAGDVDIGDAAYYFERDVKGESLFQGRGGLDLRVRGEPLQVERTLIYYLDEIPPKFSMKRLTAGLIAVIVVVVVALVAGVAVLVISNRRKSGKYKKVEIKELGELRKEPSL

Human TROP2 Full length = target: T5, Human TROP2 Full length (human, UniProt P09758 31-323); assay: cell-based or functional assay
T5 sequence: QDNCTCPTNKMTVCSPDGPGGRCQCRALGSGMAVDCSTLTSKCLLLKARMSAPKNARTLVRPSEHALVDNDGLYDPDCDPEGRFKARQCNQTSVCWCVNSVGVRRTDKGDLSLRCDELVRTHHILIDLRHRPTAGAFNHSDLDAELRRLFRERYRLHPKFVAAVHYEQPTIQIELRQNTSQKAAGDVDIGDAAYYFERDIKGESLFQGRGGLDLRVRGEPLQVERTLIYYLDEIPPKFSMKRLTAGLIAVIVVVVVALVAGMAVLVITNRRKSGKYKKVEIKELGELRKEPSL

TBD-17 (HC S104A) [3] = target: T6, TBD-17 (HC S104A); assay: competition ELISA, Fab on captured TROP2
T6 construct: anti-TROP2 Fab, CDR3 HC alanine mutant

TBD-6 (LC I93A) = target: T7, TBD-6 (LC I93A); assay: competition ELISA, Fab on captured TROP2
T7 construct: anti-TROP2 Fab, CDR3 LC alanine mutant

[4] = target: T8, TBD-1 wt (anti-TROP2 Fab, hRS7); assay: competition ELISA, Fab on captured TROP2
T8 construct: non-mutated Fab

TBD-22 (HC D109A) [5] = target: T9, TBD-22 (HC D109A); assay: competition ELISA, Fab on captured TROP2
T9 construct: anti-TROP2 Fab, CDR3 HC alanine mutant

TBD-11 (HC R98A) [6] = target: T10, TBD-11 (HC R98A); assay: competition ELISA, peptide vs Fab binding to captured biotin-TROP2
T10 construct: Fab; also called HC R98A mutant

TBD-21 (HC F108A) [7] = target: T11, TBD-21 (HC F108A); assay: as above
T11 construct: Fab; also called HC F108A mutant

TBD-17 (HC S104A) [8] = target: T12, TBD-17 (HC S104A); assay: as above
T12 construct: Fab; also called HC S104A mutant

TBD-22 (HC D109A) [9] = target: T13, TBD-22 (HC D109A); assay: as above
T13 construct: Fab; also called HC D109A mutant

TBD-11 (HC R98A) [10] = target: T10, TBD-11 (HC R98A); assay: as above; remark: listed apart in the source
TBD-21 (HC F108A) [11] = target: T11, TBD-21 (HC F108A); assay: as above; remark: listed apart in the source
TBD-17 (HC S104A) [12] = target: T12, TBD-17 (HC S104A); assay: as above; remark: listed apart in the source
TBD-22 (HC D109A) [13] = target: T13, TBD-22 (HC D109A); assay: as above; remark: listed apart in the source

IC50 (TBD-17 (HC S104A) [3]): 15700 nM
IC50 (TBD-11 (HC R98A) [1]): 19100 nM
IC50 (TBD-6 (LC I93A)): 12300 nM
IC50 [4]: 14300 nM
IC50 (TBD-22 (HC D109A) [5]): 890 nM
Binder: VDFCYQYAWPVCSTGD (mask peptide for the TROP2 Fab) [Peptide-52]

IC50 (TBD-11 (HC R98A) [6]): 1780 nM
IC50 (TBD-21 (HC F108A) [7]): 1630 nM
IC50 (TBD-17 (HC S104A) [8]): 1600 nM
IC50 (TBD-22 (HC D109A) [9]): 120 nM
Binder: PDFCAVYRWPICYQ (cysteine pairing not given here; also: biotinylated, site not given here) [Peptide-64]

IC50 (TBD-11 (HC R98A) [1]): 1130 nM
Binder: VEICKQWFYTVCLS (mask peptide for the TROP2 Fab) [Peptide-58]

IC50 (TBD-11 (HC R98A) [6]): 6810 nM
IC50 (TBD-21 (HC F108A) [7]): 5890 nM
IC50 (TBD-17 (HC S104A) [8]): 1400 nM
IC50 (TBD-22 (HC D109A) [9]): 110 nM
Binder: IDFCLIYNWPVCDT (cysteine pairing not given here; also: biotinylated, site not given here) [Peptide-63]

IC50 (TBD-17 (HC S104A) [3]): 39600 nM
IC50 (TBD-11 (HC R98A) [1]): 409000 nM
IC50 (TBD-6 (LC I93A)): 14500 nM
IC50 [4]: 9290 nM
IC50 (TBD-22 (HC D109A) [5]): 2500 nM
Binder: VDFCYQYGWPICSRVD (mask peptide for the TROP2 Fab) [Peptide-45]

IC50 (TBD-17 (HC S104A) [3]): 27200 nM
IC50 (TBD-11 (HC R98A) [1]): 46200 nM
IC50 (TBD-6 (LC I93A)): 7540 nM
IC50 [4]: 6480 nM
IC50 (TBD-22 (HC D109A) [5]): 2010 nM
Binder: VDFCYQYGWPICSRLY (mask peptide for the TROP2 Fab) [Peptide-47]

The remaining lines, values behind:

Binder: TSLICFRNVYCWNV (cysteine pairing not given here; also: biotinylated, site not given here) [Peptide-30]
IC50 (TBD-1 wt): 1910 nM

Binder: VEFCKQWTWFGCMT (mask peptide for the TROP2 Fab) [Peptide-44]
IC50 (TBD-11 (HC R98A) [1]): 3550 nM

Binder: VDFCSFYRWPICET (cysteine pairing not given here; also: biotinylated (site not given here)) [Peptide-20]
IC50 (TBD-1 wt): 1610 nM

B1: PC-49 (bispecific antibody)
light: GGVDFCALYHWPICYQGGGSGGSGGISSGLLSGRSDAGSGGSDIQLTQSPSSLSASVGDRVSITCKASQDVSIAVAWYQQKPGKAPKLLIYSASYRYTGVPDRFSGSGSGTDFTLTISSLQPEDFAVYYCQQHYITPLTFGAGTKVEIKRTVAAPSVFIFPPSDEQLKSGTASVVCLLNNFYPREAKVQWKVDNALQSGNSQESVTEQDSKDSTYSLSSTLTLSKADYEKHKVYACEVTHQGLSSPVTKSFNRGEC
heavy: not shown
notes: Masked polypeptide complex with CL2 cleavable linker: anti-TROP2 F108A, anti-CD3 wt
EC50 [2]: 1360 nM
CyTROP2 HEK293 EC50 (pM) (Cyno TROP2 Full length): 10600 pM
H292 Cytotoxicity EC50 (pM) (Human TROP2 Full length): 67400 pM
HCT116 Cytotoxicity EC50 (pM) (Human TROP2 Full length): > 100000 pM

Binder: SVLFCVKNLYCWVT (cysteine pairing not given here; also: biotinylated (site not given here)) [Peptide-24]
IC50 (TBD-1 wt): 2780 nM

B2: PC-33 (bispecific antibody)
light: GGVDFCALYHWPICYQGGGGSGGLSGRSDAGSPLGLAGSGGSDIQLTQSPSSLSASVGDRVSITCKASQDVSIAVAWYQQKPGKAPKLLIYSASYRYTGVPDRFSGSGSGTDFTLTISSLQPEDFAVYYCQQHYITPLTFGAGTKVEIKRTVAAPSVFIFPPSDEQLKSGTASVVCLLNNFYPREAKVQWKVDNALQSGNSQESVTEQDSKDSTYSLSSTLTLSKADYEKHKVYACEVTHQGLSSPVTKSFNRGEC
heavy: not shown
notes: Masked polypeptide complex: anti-TROP2 F108A, anti-CD3 wt; CD3 mask …
EC50 [2]: 574 nM
CyTROP2 HEK293 EC50 (pM) (Cyno TROP2 Full length): 837 pM
H292 Cytotoxicity EC50 (pM) (Human TROP2 Full length): 13200 pM

B3: PC-40 (bispecific antibody)
light: GGVDFCALYHWPICYQGGGGSGGLSGRSDAGSPLGLAGSGGSDIQLTQSPSSLSASVGDRVSITCKASQDVSIAVAWYQQKPGKAPKLLIYSASYRYTGVPDRFSGSGSGTDFTLTISSLQPEDFAVYYCQQHYITPLTFGAGTKVEIKRTVAAPSVFIFPPSDEQLKSGTASVVCLLNNFYPREAKVQWKVDNALQSGNSQESVTEQDSKDSTYSLSSTLTLSKADYEKHKVYACEVTHQGLSSPVTKSFNRGEC
heavy: EVQLVESGGGLVQPGGSLRLSCAASGSTFYTAVMGWVRQAPGKGLEWVAAIRWTALTTSYADSVKGRFTISRDGAKTTLYLQMNSLRPEDTAVYYCAARGTLGLFTTADSYDYWGQGTLVTVSSGGGGSGGGSGGYLCGPDADETLACYGGGGSGGGLSGRSDAGSPLGLAGSGGGSEVQLVESGGGLVQPGGSLKLSCAASGFTFNKYAMNWVRQASGKGLEWVGRIRSKYNNYATYYADSVKDRFTISRDDSKNTAYLQMNSLKTEDTAVYYCVRHGNFGNSYISYWAYWGQGTLVTVSSGGGGSGGGGSGGGGSQTVVTQEPSFSVSPGGTVTLTCRSSTGAVTSGNYANWVQQTPGQAPRGLIGGTKFLAPGVPDRFSGSILGNKAALTITGAQADDESDYYCVLWYSNRWVFGGGTKLTVLGGGGSQVQLQQSGSELKKPGASVKVSCKASGYTFTNYGMNWVKQAPGQGLKWMGWINTYTGEPTYTDDFKGRFAFSLDTSVSTAYLQISSLKADDTAVYFCARGGFGSSYWYADVWGQGSLVTVSSASTKGPSVFPLAPSSKSTSGGTAALGCLVKDYFPEPVTVSWNSGALTSGVHTFPAVLQSSGLYSLSSVVTVPSSSLGTQTYICNVNHKPSNTKVDKKVEPKSC
notes: Masked polypeptide complex: anti-TROP2 F108A, anti-CD3 with P41S, A49G, N87S ; E227D; CD3 mask YLCGPDADETLACY
EC50 [2]: 3510 nM
CyTROP2 HEK293 EC50 (pM) (Cyno TROP2 Full length): 10400 pM
H292 Cytotoxicity EC50 (pM) (Human TROP2 Full length): 53200 pM
HCT116 Cytotoxicity EC50 (pM) (Human TROP2 Full length): > 100000 pM

Binder: FSLVCVRNLYCWNV (cysteine pairing not given here; also: biotinylated, site not given here) [Peptide-27]
IC50 (TBD-1 wt): 740 nM

Binder: NYLLCVKNLYCWIV (cysteine pairing not given here; also: biotinylated, site not given here) [Peptide-28]
IC50 (TBD-1 wt): 1630 nM

Binder: YSLVCVKNLYCWNL (cysteine pairing not given here; also: biotinylated, site not given here) [Peptide-31]
IC50 (TBD-1 wt): 2940 nM

B4: PC-48 (bispecific antibody)
light: GGVDFCALYHWPICYQGGGGSGGGSGGSGGASSGAGGSGGGSDIQLTQSPSSLSASVGDRVSITCKASQDVSIAVAWYQQKPGKAPKLLIYSASYRYTGVPDRFSGSGSGTDFTLTISSLQPEDFAVYYCQQHYITPLTFGAGTKVEIKRTVAAPSVFIFPPSDEQLKSGTASVVCLLNNFYPREAKVQWKVDNALQSGNSQESVTEQDSKDSTYSLSSTLTLSKADYEKHKVYACEVTHQGLSSPVTKSFNRGEC
heavy: not shown
notes: Masked polypeptide complex with non-cleavable linker: anti-TROP2 F108A, anti-CD3 wt
EC50 [2]: 3960 nM
CyTROP2 HEK293 EC50 (pM) (Cyno TROP2 Full length): 69900 pM
H292 Cytotoxicity EC50 (pM) (Human TROP2 Full length): > 100000 pM
HCT116 Cytotoxicity EC50 (pM) (Human TROP2 Full length): > 100000 pM

Binder: EDFCKLYNWPICYQ (cysteine pairing not given here; also: biotinylated, site not given here) [Peptide-7]
IC50 (TBD-11 (HC R98A) [10]): 1000 nM
IC50 (TBD-21 (HC F108A) [11]): 4010 nM
IC50 (TBD-17 (HC S104A) [12]): 3770 nM
IC50 (TBD-22 (HC D109A) [13]): 130 nM

Binder: DNLICVKNLWCWIA (cysteine pairing not given here; also: biotinylated, site not given here) [Peptide-26]
IC50 (TBD-1 wt): 2230 nM
